This note sets out measurements from patent publication US20230406922A1.

The target of test [1] is human CD19, full length, on cells (human) (UniProt P15391). The test is described as follows: FACS on CHO-K1-human CD19-2C8 cells.
Test [2] shares this target. The experiment in a line: FACS on CHO-K1-human CD19-2G4 cells.
Test [3] has the same target. The test is described as follows: FACS on CHO-K1-human CD19-1C4 cells.
The target in test [4] is monkey CD19, full length, on HEK293T cells (monkey). The experiment in a line: FACS on HEK293T-monkey CD19 cells.
Test [5] has as its target human CD19, full length, on cells (human) (UniProt P15391). The experiment in a line: FACS on Raji cells (endogenous CD19).
Test [6] has the same target. The test is described as follows: FACS on CHO-K1-human CD19-1C9 cells.
Test [7] has as its target human CD19-his protein (human) (UniProt P15391). The experiment in a line: ELISA, human CD19-his coated at 4 ug/mL. In general terms: An ELISA detects its analyte on a solid surface through an enzyme-linked reagent.
In test [8] the target is human CD19, full length, on cells (human) (UniProt P15391). The experiment in a line: FACS on Raji cells.
Test [9] addresses murine CD19 protein (murine) (UniProt P25918). The experiment in a line: ELISA, murine CD19 coated.
The target in test [10] is human CD19, full length, on cells (human) (UniProt P15391). The test is described as follows: FACS on CHO-K1-human CD19 cells.
The target of test [11] is cynomolgus monkey CD19 on peripheral blood B cells (cynomolgus monkey (Macaca fascicularis)). The experiment in a line: FACS on cynomolgus monkey PBMC, gated on CD20-positive B cells.

Sequence of murine CD19 protein (murine) (P25918 19-287 limits assumed): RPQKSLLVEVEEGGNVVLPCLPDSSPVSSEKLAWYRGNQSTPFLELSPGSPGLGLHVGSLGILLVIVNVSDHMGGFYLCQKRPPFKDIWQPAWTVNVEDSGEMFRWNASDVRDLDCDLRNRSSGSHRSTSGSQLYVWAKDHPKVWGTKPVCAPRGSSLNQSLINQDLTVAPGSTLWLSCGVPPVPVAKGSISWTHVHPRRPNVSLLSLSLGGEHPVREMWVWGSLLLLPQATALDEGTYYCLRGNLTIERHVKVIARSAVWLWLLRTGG

IgG subtype control (antibody): the mean fluorescence intensity of cells was determined as 50 MFI in [1]; 50 MFI in test [2]; 50 MFI in [3]; 62 MFI in test [4]; 78 MFI in test [5]; 50 MFI in [6].

In test [7], “negative control antibody mIgG1 (anti-hel-mIgG1, antibody against hen egg lysozyme)” had an OD450 at 0.0001 nM of 0.11 OD450, an OD450 at 0.001 nM of 0.12 OD450, an OD450 at 0.01 nM of 0.11 OD450 and an OD450 at 0.10 nM of 0.11 OD450. Besides, in test [7], the OD450 at 1.00 nM worked out at 0.11 OD450, the OD450 at 10.00 nM was 0.12 OD450 and the OD450 at 100.00 nM is 0.15 OD450. The substance also displayed a maximum mean fluorescence intensity in [8] of 382 MFI. In [9], this substance displayed an OD450 at 0.0001 nM of 0.07 OD450, an OD450 at 0.001 nM of 0.06 OD450, an OD450 at 0.01 nM of 0.06 OD450 and an OD450 at 0.10 nM of 0.06 OD450. Also, in test [9], the OD450 at 1.00 nM came to 0.06 OD450, the OD450 at 10.00 nM was found to be 0.08 OD450 and the OD450 at 100.00 nM was determined as 0.11 OD450. The substance further had a maximum mean fluorescence intensity in test [4] of 165 MFI. In addition, the maximum mean fluorescence intensity in test [10] came to 102 MFI. In test [11], the proportion of positive cells to B cells (%) at 1 nM came to 3%, the proportion of positive cells to B cells (%) at 10 nM was 5% and the proportion of positive cells to B cells (%) at 100 nM was determined as 11%.
